Reference: article PMC5286394, “Architecture of the yeast Elongator complex” (EMBO Reports, 2016)

T1: GST-tagged full-length Elp1 (S. cerevisiae, UniProt Q06706 1-1349)
T1 construct: Elp1, Elongator subunit 1, S. cerevisiae; also called GST-Elp1; source: E. coli BL21 pSarRare, purified (NiNTA, S200 gel filtration); not shown: His6, N-terminal, kept; GST, N-terminal, kept
T1 sequence (looked up): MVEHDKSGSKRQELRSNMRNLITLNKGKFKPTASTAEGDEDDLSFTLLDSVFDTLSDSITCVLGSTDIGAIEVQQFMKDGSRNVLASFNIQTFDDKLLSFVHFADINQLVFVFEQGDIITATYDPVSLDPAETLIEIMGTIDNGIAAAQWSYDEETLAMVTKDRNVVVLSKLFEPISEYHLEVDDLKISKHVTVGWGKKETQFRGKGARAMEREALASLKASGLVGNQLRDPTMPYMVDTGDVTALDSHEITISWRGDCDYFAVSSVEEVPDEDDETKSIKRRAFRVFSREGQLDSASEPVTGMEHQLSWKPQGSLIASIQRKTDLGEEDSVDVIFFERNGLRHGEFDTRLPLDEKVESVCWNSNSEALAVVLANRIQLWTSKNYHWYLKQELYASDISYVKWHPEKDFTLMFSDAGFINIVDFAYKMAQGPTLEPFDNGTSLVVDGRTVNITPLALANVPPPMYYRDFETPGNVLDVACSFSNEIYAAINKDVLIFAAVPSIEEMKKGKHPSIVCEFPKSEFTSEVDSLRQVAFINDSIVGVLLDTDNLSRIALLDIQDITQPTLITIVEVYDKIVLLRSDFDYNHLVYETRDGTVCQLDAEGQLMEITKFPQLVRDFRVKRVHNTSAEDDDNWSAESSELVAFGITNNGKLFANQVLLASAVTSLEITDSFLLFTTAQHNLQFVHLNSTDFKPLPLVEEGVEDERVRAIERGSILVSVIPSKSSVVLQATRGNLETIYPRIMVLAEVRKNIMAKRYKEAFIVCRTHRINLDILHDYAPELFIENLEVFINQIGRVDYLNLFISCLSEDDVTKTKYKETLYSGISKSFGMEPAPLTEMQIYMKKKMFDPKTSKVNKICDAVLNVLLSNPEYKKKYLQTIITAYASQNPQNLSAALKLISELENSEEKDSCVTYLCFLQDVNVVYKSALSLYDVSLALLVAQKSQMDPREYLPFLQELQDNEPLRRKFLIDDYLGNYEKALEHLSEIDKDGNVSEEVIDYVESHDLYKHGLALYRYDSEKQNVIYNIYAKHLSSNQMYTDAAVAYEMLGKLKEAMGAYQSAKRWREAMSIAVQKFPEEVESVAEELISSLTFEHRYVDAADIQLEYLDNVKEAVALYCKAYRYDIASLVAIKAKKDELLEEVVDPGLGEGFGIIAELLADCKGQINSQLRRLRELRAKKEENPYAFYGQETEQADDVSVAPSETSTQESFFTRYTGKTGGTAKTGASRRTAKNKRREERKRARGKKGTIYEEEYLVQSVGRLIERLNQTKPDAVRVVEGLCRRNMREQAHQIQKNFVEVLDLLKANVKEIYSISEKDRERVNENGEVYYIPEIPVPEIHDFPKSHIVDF

T2: purified N-terminal region of Elp1 (S. cerevisiae)
T2 chain: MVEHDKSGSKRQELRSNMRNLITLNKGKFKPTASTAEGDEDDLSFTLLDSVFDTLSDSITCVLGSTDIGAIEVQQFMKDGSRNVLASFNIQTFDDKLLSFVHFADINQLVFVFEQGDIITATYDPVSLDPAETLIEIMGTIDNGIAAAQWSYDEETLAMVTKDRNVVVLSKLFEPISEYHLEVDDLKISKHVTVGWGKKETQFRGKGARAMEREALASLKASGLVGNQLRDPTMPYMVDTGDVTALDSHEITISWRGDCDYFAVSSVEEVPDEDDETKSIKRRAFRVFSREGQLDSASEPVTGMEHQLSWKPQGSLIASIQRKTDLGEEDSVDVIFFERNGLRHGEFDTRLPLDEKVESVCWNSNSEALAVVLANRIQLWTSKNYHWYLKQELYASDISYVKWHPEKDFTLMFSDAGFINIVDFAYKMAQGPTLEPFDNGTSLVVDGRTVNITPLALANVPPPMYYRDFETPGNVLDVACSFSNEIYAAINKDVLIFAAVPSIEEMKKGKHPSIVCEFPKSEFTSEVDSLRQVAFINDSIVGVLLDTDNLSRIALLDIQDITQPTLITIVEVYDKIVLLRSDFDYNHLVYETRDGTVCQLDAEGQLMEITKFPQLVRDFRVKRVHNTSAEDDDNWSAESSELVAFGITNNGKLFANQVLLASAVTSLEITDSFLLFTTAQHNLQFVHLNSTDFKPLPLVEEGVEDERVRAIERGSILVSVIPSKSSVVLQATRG

T3: endogenously TAP-tagged Elp1 (S. cerevisiae (endogenous in strain …, UniProt Q06706 1-1349))
T3 construct: Elp1, S. cerevisiae, endogenous protein with TAP tag (Elp1-TAP::TRP1); also called Elp1-TAP
T3 sequence (looked up): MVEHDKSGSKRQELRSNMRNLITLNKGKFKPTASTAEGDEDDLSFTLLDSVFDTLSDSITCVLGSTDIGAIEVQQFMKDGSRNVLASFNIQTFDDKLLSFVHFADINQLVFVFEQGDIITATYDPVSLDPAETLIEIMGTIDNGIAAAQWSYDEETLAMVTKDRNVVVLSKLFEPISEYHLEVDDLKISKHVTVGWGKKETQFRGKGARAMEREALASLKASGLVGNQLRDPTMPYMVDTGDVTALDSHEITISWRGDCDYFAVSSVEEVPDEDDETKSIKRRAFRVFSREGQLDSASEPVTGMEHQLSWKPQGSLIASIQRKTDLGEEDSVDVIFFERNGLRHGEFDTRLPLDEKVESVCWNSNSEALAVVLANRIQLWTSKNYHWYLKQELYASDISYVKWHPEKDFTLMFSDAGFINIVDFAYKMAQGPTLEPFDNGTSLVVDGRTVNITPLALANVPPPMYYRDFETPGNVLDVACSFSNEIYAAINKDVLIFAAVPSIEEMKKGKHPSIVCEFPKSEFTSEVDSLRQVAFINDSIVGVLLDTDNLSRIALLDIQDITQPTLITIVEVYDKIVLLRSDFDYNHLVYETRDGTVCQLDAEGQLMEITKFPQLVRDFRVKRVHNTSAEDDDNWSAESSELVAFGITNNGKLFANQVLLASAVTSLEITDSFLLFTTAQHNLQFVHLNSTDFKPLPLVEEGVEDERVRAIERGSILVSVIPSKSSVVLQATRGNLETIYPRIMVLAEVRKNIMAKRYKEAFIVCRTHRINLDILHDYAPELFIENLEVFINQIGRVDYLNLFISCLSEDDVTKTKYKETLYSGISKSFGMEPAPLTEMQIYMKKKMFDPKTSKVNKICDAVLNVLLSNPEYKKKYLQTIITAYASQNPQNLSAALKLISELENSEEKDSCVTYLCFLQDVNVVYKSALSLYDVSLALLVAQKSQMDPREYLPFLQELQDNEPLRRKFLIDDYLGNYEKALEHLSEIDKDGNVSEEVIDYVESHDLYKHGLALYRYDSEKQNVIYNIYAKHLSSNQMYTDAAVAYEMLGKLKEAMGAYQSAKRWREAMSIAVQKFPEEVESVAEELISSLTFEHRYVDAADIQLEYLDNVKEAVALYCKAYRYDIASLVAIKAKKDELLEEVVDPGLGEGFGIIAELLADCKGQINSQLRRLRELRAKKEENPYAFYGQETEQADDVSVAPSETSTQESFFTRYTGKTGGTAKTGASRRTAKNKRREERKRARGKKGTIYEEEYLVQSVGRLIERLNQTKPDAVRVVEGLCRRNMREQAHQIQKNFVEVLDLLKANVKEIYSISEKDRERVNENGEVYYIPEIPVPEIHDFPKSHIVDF


How the values were obtained:
[1] = biological target: T1, GST-tagged full-length Elp1; experiment: pull-down; GST pull-down: 20 μg GST-tagged protein and increasing amounts of untagged partner with glutathione Sepharose, 2 h at 4°C, 20 mM Tris pH 7.5, 150 mM NaCl, 5 mM DTT, 0.1% Tween-20; five washes; SDS–PAGE, Coomassie; conditions: both partners purified
[2] = biological target: T2, purified N-terminal region of Elp1; experiment: ITC; VP-ITC; 20 mM Tris–HCl pH 7.5, 150 mM NaCl, 2 mM β-mercaptoethanol; 10 μM in the cell, 100 μM in the syringe; conditions: both partners purified
[3] = biological target: T3, endogenously TAP-tagged Elp1; experiment: tandem-affinity purification (SDS–PAGE); endogenous TAP-tagged bait from yeast lysate; IgG Sepharose, TEV elution, Calmodulin Sepharose, EGTA elution; HEPES pH 7.9, 125 mM NaCl; conditions: partners not purified

| Binder | Kd [2] [nM] | further results |
| --- | --- | --- |
| Full-length His6-tagged ScElp3, refolded and anaerobically reconstituted (enzyme, S. cerevisiae, UniProt Q02908 1-557, looked up, Elp3, Elongator subunit 3, S. cerevisiae; Carries a reconstituted Fe/S cluster; also called ScElp3H6) MARHGKGPKTNKKKLAPEKERFIQCCADITLELTDSLTSGTTREINLNGLITKYSKKYKLKQQPRLTDIINSIPDQYKKYLLPKLKAKPVRTASGIAVVAVMCKPHRCPHIAYTGNICVYCPGGPDSDFEYSTQSYTGYEPTSMRAIRARYDPYEQARGRVEQLKQLGHSIDKVEYVLMGGTFMSLPKEYREDFIVKLHNALSGFNGNDIDEAILYSQQSLTKCVGITIETRPDYCTQTHLDDMLKYGCTRLEIGVQSLYEDVARDTNRGHTVRSVCETFAVSKDAGYKVVSHMMPDLPNVGMERDIEQFKEYFENPDFRTDGLKIYPTLVIRGTGLYELWKTGRYKSYSANALVDLVARILALVPPWTRIYRVQRDIPMPLVTSGVDNGNLRELALARMKDLGTTCRDVRTREVGIQEVHHKVQPDQVELIRRDYYANGGWETFLSYEDPKKDILIGLLRLRKASKKYTYRKEFTSQRTSIVRELHVYGSVVPLHSRDPRKFQHQGFGTLLMEEAERIAKEEHGSEKISVISGVGVRNYYGKLGYELDGPYMSKRI |  | binding result [1]: binds |
| MSFRKRGEIL (peptide, UniProt Q02884 1-10, looked up, Elp4, S. cerevisiae, residues 1–10; source: synthetic peptide (Peptide Specialty Laboratories, Germany)) [synthetic peptide of the conserved N-terminal region of Elp4 (aa1–10)] | 2700 ± 300 |  |
| MSFRKRGEILNDRGSGLRGPLLRGPPR (peptide, UniProt Q02884 1-27, looked up, Elp4, S. cerevisiae, residues 1–27; source: synthetic peptide (Peptide Specialty Laboratories, Germany)) [synthetic peptide of the conserved N-terminal region of Elp4 (aa1–27)] | 1600 ± 400 |  |
| endogenous Elp3 (enzyme, UniProt Q02908 1-557, looked up, Elp3, S. cerevisiae, endogenous protein; source: endogenous, S. cerevisiae strains BS1173 and BSY2369, co-purified with Elp1-TAP or Elp6-TAP) MARHGKGPKTNKKKLAPEKERFIQCCADITLELTDSLTSGTTREINLNGLITKYSKKYKLKQQPRLTDIINSIPDQYKKYLLPKLKAKPVRTASGIAVVAVMCKPHRCPHIAYTGNICVYCPGGPDSDFEYSTQSYTGYEPTSMRAIRARYDPYEQARGRVEQLKQLGHSIDKVEYVLMGGTFMSLPKEYREDFIVKLHNALSGFNGNDIDEAILYSQQSLTKCVGITIETRPDYCTQTHLDDMLKYGCTRLEIGVQSLYEDVARDTNRGHTVRSVCETFAVSKDAGYKVVSHMMPDLPNVGMERDIEQFKEYFENPDFRTDGLKIYPTLVIRGTGLYELWKTGRYKSYSANALVDLVARILALVPPWTRIYRVQRDIPMPLVTSGVDNGNLRELALARMKDLGTTCRDVRTREVGIQEVHHKVQPDQVELIRRDYYANGGWETFLSYEDPKKDILIGLLRLRKASKKYTYRKEFTSQRTSIVRELHVYGSVVPLHSRDPRKFQHQGFGTLLMEEAERIAKEEHGSEKISVISGVGVRNYYGKLGYELDGPYMSKRI |  | binding result [3]: binds |
